Data published in patent US20120045438A1 (Janssen / Centocor, published 2012).

Tests used:
[1] = target: T1, human IL-13 R130Q variant (R110Q of the mature chain) (human, UniProt P35225 35-146, Biotinylated on amines (NHS-LC-biotin, 4:1) in ELISA, panning and competition assays. The letters are unchanged.); test: SPR (Biacore), mAb made in HEK293
T1 construct: R130Q counts from Met 1 of the signal peptide, R110Q on the mature chain; Bought from Peprotech; also called IL-13 R110Q; b-R130Q

[2] = target: T1, human IL-13 R130Q variant (R110Q of the …); test: direct binding ELISA, mAb captured by anti-human Fc, biotinylated IL-13 R130Q, crude supernatant;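 also: 100% is the positive control mAb signal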
[3] = target: T1, human IL-13 R130Q variant (R110Q of the …); test: competition ELISA, biotinylated IL-13 R130Q binding to plate-bound IL-13Ra2, crude supernatant
[4] = target: T1, human IL-13 R130Q variant (R110Q of the …); test: single-point (10 nM) phage Fab ELISA on biotinylated IL-13 R130Q

B1: mAb Lc-2B03 with Hc2 M34V, M100L, V106I (antibody, V domains shown)
VH: QVTLKESGPVLVKPTETLTLTCTVSGFSLSTYGVGVGWIRQPPGKALEWLAHIWWDDVKRYNPALKSRLTISKDTSKSQVVLTMTNMDPVDTATYYCARLGSDYDIWFDYWGQGTLVTVSS
VL: EIVLTQSPATLSLSPGERATLSCRASKSISKYLAWYQQKPGQAPRLLIYSGSTLQSGIPARFSGSGSGTDFTLTISSLEPEDFAVYYCQQHDYPYTFGQGTKLEIK
notes: full-length mAb
Kd [1]: 25.2 pM

B2: Lc4Hc2 (antibody, V domains shown)
VH: QVTLKESGPVLVKPTETLTLTCTVSGFSLSTYGMGVGWIRQPPGKALEWLAHIWWDDVKRYNPALKSRLTISKDTSKSQVVLTMTNMDPVDTATYYCARMGSDYDVWFDYWGQGTLVTVSS
VL: DIQMTQSPSSLSASVGDRVTITCRASKSISKYLAWYQQKPGKAPKRLIYSGSTLQSGVPSRFSGSGSGTEFTLTISSLQPEDFATYYCQQHNEYPYTFGGGTKVEIK
Percent IL-13 R130Q (30 ng/ml) Binding [2]: 84.7% | Percent Inhibition IL-13 R130Q (333 ng/ml) to Ra2 [3]: 55%

B3: Lc5Hc2 (antibody, V domains shown)
VH: QVTLKESGPVLVKPTETLTLTCTVSGFSLSTYGMGVGWIRQPPGKALEWLAHIWWDDVKRYNPALKSRLTISKDTSKSQVVLTMTNMDPVDTATYYCARMGSDYDVWFDYWGQGTLVTVSS
VL: DIQLTQSPSFLSASVGDRVTITCRASKSISKYLAWYQQKPGKAPKLLIYSGSTLQSGVPSRFSGSGSGTEFTLTISSLQPEDFATYYCQQHNEYPYTFGQGTKVEIK
Percent IL-13 R130Q (30 ng/ml) Binding [2]: 85.9% | Percent Inhibition IL-13 R130Q (333 ng/ml) to Ra2 [3]: 57%

B4: Lc10Hc2 (antibody, V domains shown)
VH: QVTLKESGPVLVKPTETLTLTCTVSGFSLSTYGMGVGWIRQPPGKALEWLAHIWWDDVKRYNPALKSRLTISKDTSKSQVVLTMTNMDPVDTATYYCARMGSDYDVWFDYWGQGTLVTVSS
VL: DIQLTQSPSFLSASVGDRVTITCRASKSISKYLAWYQQKPGKAPKLLIYSGSTLQSGVPSRFSGSGSGTEFTLTISSLQPEDFATYYCQQHNEYPYTFGGGTKVEIK
Percent IL-13 R130Q (30 ng/ml) Binding [2]: 78.9% | Percent Inhibition IL-13 R130Q (333 ng/ml) to Ra2 [3]: 57%

B5: Lc11Hc2 (antibody, V domains shown)
VH: QVTLKESGPVLVKPTETLTLTCTVSGFSLSTYGMGVGWIRQPPGKALEWLAHIWWDDVKRYNPALKSRLTISKDTSKSQVVLTMTNMDPVDTATYYCARMGSDYDVWFDYWGQGTLVTVSS
VL: AIRMTQSPSSFSASTGDRVTITCRASKSISKYLAWYQQKPGKAPKLLIYSGSTLQSGVPSRFSGSGSGTDFTLTISCLQSEDFATYYCQQHNEYPYTFGGGTKVEIK
Percent IL-13 R130Q (30 ng/ml) Binding [2]: 92.2% | Percent Inhibition IL-13 R130Q (333 ng/ml) to Ra2 [3]: 51%

B6: Lc12Hc1 (antibody, V domains shown)
VH: QVTLKESGPALVKPTQTLTLTCTFSGFSLSTYGMGVGWIRQPPGKALEWLAHIWWDDVKRYNPALKSRLTISKDTSKNQVVLTMTNMDPVDTATYYCARMGSDYDVWFDYWGQGTLVTVSS
VL: DIQMTQSPSSLSASVGDRVTITCRASKSISKYLAWYQQKPEKAPKSLIYSGSTLQSGVPSRFSGSGSGTDFTLTISSLQPEDFATYYCQQHNEYPYTFGGGTKVEIK
Percent IL-13 R130Q (30 ng/ml) Binding [2]: 36.4% | Percent Inhibition IL-13 R130Q (333 ng/ml) to Ra2 [3]: 26%

B7: Fab clone 3F08 (IL-13-62 library) (Fab, V domains shown)
VH: QVTLKESGPVLVKPTETLTLTCTVSGFSLSTYGMGVGWIRQPPGKALEWLAHIWWDDVKRYNPALKSRLTISKDTSKSQVVLTMTNMDPVDTATYYCARMGSDYDVWFDYWGQGTLVTVSS
VL: EIVLTQSPATLSLSPGERATLSCRASKSISKYLAWYQQKPGQAPRLLIYSGSTLQSGIPARFSGSGSGTDFTLTISSLEPEDFAVYYCQQHLMGPYTFGQGTKLEIK
notes: Fab on phage pIX
Signal (% of Lc16Hc7) [4]: 111%

B8: Fab clone 3G01 (IL-13-62 library) (Fab, V domains shown)
VH: QVTLKESGPVLVKPTETLTLTCTVSGFSLSTYGMGVGWIRQPPGKALEWLAHIWWDDVKRYNPALKSRLTISKDTSKSQVVLTMTNMDPVDTATYYCARMGSDYDVWFDYWGQGTLVTVSS
VL: EIVLTQSPATLSLSPGERATLSCRASKSISKYLAWYQQKPGQAPRLLIYSGSTLQSGIPARFSGSGSGTDFTLTISSLEPEDFAVYYCQQQDLGPYTFGQGTKLEIK
notes: Fab on phage pIX
Signal (% of Lc16Hc7) [4]: 122%

B9: Fab clone 3G05 (IL-13-62 library) (Fab, V domains shown)
VH: QVTLKESGPVLVKPTETLTLTCTVSGFSLSTYGMGVGWIRQPPGKALEWLAHIWWDDVKRYNPALKSRLTISKDTSKSQVVLTMTNMDPVDTATYYCARMGSDYDVWFDYWGQGTLVTVSS
VL: EIVLTQSPATLSLSPGERATLSCRASKSISKYLAWYQQKPGQAPRLLIYSGSTLQSGIPARFSGSGSGTDFTLTISSLEPEDFAVYYCQQPLDSPYTFGQGTKLEIK
notes: Fab on phage pIX
Signal (% of Lc16Hc7) [4]: 108%

B10: Fab clone 3H12 (IL-13-62 library) (Fab, V domains shown)
VH: QVTLKESGPVLVKPTETLTLTCTVSGFSLSTYGMGVGWIRQPPGKALEWLAHIWWDDVKRYNPALKSRLTISKDTSKSQVVLTMTNMDPVDTATYYCARMGSDYDVWFDYWGQGTLVTVSS
VL: EIVLTQSPATLSLSPGERATLSCRASKSISKYLAWYQQKPGQAPRLLIYSGSTLQSGIPARFSGSGSGTDFTLTISSLEPEDFAVYYCQQHDSGPYTFGQGTKLEIK
notes: Fab on phage pIX
Signal (% of Lc16Hc7) [4]: 120%

B11: Fab clone 4B10 (IL-13-62 library) (Fab, V domains shown)
VH: QVTLKESGPVLVKPTETLTLTCTVSGFSLSTYGMGVGWIRQPPGKALEWLAHIWWDDVKRYNPALKSRLTISKDTSKSQVVLTMTNMDPVDTATYYCARMGSDYDVWFDYWGQGTLVTVSS
VL: EIVLTQSPATLSLSPGERATLSCRASKSISKYLAWYQQKPGQAPRLLIYSGSTLQSGIPARFSGSGSGTDFTLTISSLEPEDFAVYYCQQHFWGPYTFGQGTKLEIK
notes: Fab on phage pIX
Signal (% of Lc16Hc7) [4]: 117%

B12: Fab clone 4D01 (IL-13-62 library) (Fab, V domains shown)
VH: QVTLKESGPVLVKPTETLTLTCTVSGFSLSTYGMGVGWIRQPPGKALEWLAHIWWDDVKRYNPALKSRLTISKDTSKSQVVLTMTNMDPVDTATYYCARMGSDYDVWFDYWGQGTLVTVSS
VL: EIVLTQSPATLSLSPGERATLSCRASKSISKYLAWYQQKPGQAPRLLIYSGSTLQSGIPARFSGSGSGTDFTLTISSLEPEDFAVYYCQQPLDVPYTFGQGTKLEIK
notes: Fab on phage pIX
Signal (% of Lc16Hc7) [4]: 140%

B13: Fab clone 4F07 (IL-13-62 library) (Fab, V domains shown)
VH: QVTLKESGPVLVKPTETLTLTCTVSGFSLSTYGMGVGWIRQPPGKALEWLAHIWWDDVKRYNPALKSRLTISKDTSKSQVVLTMTNMDPVDTATYYCARMGSDYDVWFDYWGQGTLVTVSS
VL: EIVLTQSPATLSLSPGERATLSCRASKSISKYLAWYQQKPGQAPRLLIYSGSTLQSGIPARFSGSGSGTDFTLTISSLEPEDFAVYYCQQPIDAPYTFGQGTKLEIK
notes: Fab on phage pIX
Signal (% of Lc16Hc7) [4]: 116%

B14: Lc15Hc2 (antibody, V domains shown)
VH: QVTLKESGPVLVKPTETLTLTCTVSGFSLSTYGMGVGWIRQPPGKALEWLAHIWWDDVKRYNPALKSRLTISKDTSKSQVVLTMTNMDPVDTATYYCARMGSDYDVWFDYWGQGTLVTVSS
VL: VIWMTQSPSLLSASTGDRVTISCRASKSISKYLAWYQQKPGKAPELLIYSGSTLQSGVPSRFSGSGSGTDFTLTISCLQSEDFATYYCQQHNEYPYTFGGGTKVEIK
Percent IL-13 R130Q (30 ng/ml) Binding [2]: 94.8% | Percent Inhibition IL-13 R130Q (333 ng/ml) to Ra2 [3]: 61%

B15: Lc15Hc1 (antibody, V domains shown)
VH: QVTLKESGPALVKPTQTLTLTCTFSGFSLSTYGMGVGWIRQPPGKALEWLAHIWWDDVKRYNPALKSRLTISKDTSKNQVVLTMTNMDPVDTATYYCARMGSDYDVWFDYWGQGTLVTVSS
VL: VIWMTQSPSLLSASTGDRVTISCRASKSISKYLAWYQQKPGKAPELLIYSGSTLQSGVPSRFSGSGSGTDFTLTISCLQSEDFATYYCQQHNEYPYTFGGGTKVEIK
Percent IL-13 R130Q (30 ng/ml) Binding [2]: 76.2% | Percent Inhibition IL-13 R130Q (333 ng/ml) to Ra2 [3]: 44%

B16: Lc3Hc6 (antibody, V domains shown)
VH: QVQLVESGGGVVQPGRSLRLSCAASGFSLSTYGMGVGWVRQAPGKGLEWVAHIWWDDVKRYNPALKSRFTISRDNSKNTLYLQMNSLRAEDTAVYYCARMGSDYDVWFDYWGQGTLVTVSS
VL: AIQLTQSPSSLSASVGDRVTITCRASKSISKYLAWYQQKPGKAPKLLIYSGSTLQSGVPSRFSGSGSGTDFTLTISSLQPEDFATYYCQQHNEYPYTFGGGTKVEIK
Percent IL-13 R130Q (30 ng/ml) Binding [2]: 26.6% | Percent Inhibition IL-13 R130Q (333 ng/ml) to Ra2 [3]: 14%

B17: Lc7Hc6 (antibody, V domains shown)
VL: DIQLTQSPSSLSASVGDRVTITCRASKSISKYLAWYRQKPGKVPKLLIYSGSTLQSGVPSRFSGSGSGTDFTLTISSLQPEDVATYYGQQHNEYPYTFGQGTKLEIK
VH: QVQLVESGGGVVQPGRSLRLSCAASGFSLSTYGMGVGWVRQAPGKGLEWVAHIWWDDVKRYNPALKSRFTISRDNSKNTLYLQMNSLRAEDTAVYYCARMGSDYDVWFDYWGQGTLVTVSS
Percent IL-13 R130Q (30 ng/ml) Binding [2]: -0.3% | Percent Inhibition IL-13 R130Q (333 ng/ml) to Ra2 [3]: 4%

B18: Lc7Hc1 (antibody, V domains shown)
VL: DIQLTQSPSSLSASVGDRVTITCRASKSISKYLAWYRQKPGKVPKLLIYSGSTLQSGVPSRFSGSGSGTDFTLTISSLQPEDVATYYGQQHNEYPYTFGQGTKLEIK
VH: QVTLKESGPALVKPTQTLTLTCTFSGFSLSTYGMGVGWIRQPPGKALEWLAHIWWDDVKRYNPALKSRLTISKDTSKNQVVLTMTNMDPVDTATYYCARMGSDYDVWFDYWGQGTLVTVSS
Percent IL-13 R130Q (30 ng/ml) Binding [2]: -1.4% | Percent Inhibition IL-13 R130Q (333 ng/ml) to Ra2 [3]: 6%
